How the values were obtained:
[1] = biological target: T1, NaPi2b expressed on IGROV-1 cells (Homo sapiens, UniProt O95436); test: Cellular binding of bivalent antibodies to IGROV-1 cells by flow cytometry (Example 13); conditions: IGROV-1, 24 hours at 4° C., NB = no cellular binding
T1 construct: IGROV-1 cells express endogenous NaPi2b at a high level; endogenous in cells; host or cells: IGROV-1
T1 sequence (O95436 1-690): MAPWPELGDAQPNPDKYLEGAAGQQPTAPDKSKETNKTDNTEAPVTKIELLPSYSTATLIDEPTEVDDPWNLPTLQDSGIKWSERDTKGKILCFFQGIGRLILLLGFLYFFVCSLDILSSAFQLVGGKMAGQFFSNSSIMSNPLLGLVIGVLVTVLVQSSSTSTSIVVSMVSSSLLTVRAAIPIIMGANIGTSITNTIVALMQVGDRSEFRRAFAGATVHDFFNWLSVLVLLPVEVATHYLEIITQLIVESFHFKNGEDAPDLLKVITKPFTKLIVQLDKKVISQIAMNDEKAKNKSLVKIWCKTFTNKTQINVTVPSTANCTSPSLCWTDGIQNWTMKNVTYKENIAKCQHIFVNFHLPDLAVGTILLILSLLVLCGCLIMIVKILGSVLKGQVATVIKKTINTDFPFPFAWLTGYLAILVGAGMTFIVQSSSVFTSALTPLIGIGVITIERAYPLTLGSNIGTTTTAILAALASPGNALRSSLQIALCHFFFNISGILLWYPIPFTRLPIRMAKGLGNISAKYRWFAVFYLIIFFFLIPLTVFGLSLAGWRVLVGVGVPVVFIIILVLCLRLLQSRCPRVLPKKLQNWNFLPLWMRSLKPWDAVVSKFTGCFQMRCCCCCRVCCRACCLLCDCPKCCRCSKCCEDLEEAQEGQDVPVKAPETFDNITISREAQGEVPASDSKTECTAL
Protocol: IGROV-1 cells express endogenous NaPi2b at a high level.
Briefly, cells were seeded at 50,000 cells/well in conical-bottom 96-well plates and treated with test antibody for 24 hours at 4° C. to prevent internalization. Palivizumab (anti-RSV antibody, v22277) was included as a negative control. […] Following incubation, cells were washed and stained with anti-Human IgG Fc AF647 conjugate (Jackson Immuno Research Labs, West Grove, PA; Cat. No. 109-605-098) at 4° C. for 30 min. Following incubation and washing, fluorescence was detected by flow cytometry on a BD LSRFortessa™ Cell Analyzer (BD Biosciences, Franklin Lake, NJ) with 1,000 minimum events collected per well. The AF647/APC-A GeoMean (fluorescence signal geometric mean, proportional to anti-Human AF647 binding) was calculated for the live cell population using FlowJo™ Version 10.8.1 (BD Biosciences, Franklin Lake, NJ) and plotted for each test antibody using GraphPad Prism Version 9 (GraphPad Software, San Diego, CA).

[2] = biological target: T2, NaPi2b expressed on HCC-78 cells (Homo sapiens, UniProt O95436); test: Cellular binding of antibody and ADCs to HCC-78 cells by flow cytometry (Example 14)
T2 construct: endogenous in cells; host or cells: HCC-78
T2 sequence (O95436 1-690): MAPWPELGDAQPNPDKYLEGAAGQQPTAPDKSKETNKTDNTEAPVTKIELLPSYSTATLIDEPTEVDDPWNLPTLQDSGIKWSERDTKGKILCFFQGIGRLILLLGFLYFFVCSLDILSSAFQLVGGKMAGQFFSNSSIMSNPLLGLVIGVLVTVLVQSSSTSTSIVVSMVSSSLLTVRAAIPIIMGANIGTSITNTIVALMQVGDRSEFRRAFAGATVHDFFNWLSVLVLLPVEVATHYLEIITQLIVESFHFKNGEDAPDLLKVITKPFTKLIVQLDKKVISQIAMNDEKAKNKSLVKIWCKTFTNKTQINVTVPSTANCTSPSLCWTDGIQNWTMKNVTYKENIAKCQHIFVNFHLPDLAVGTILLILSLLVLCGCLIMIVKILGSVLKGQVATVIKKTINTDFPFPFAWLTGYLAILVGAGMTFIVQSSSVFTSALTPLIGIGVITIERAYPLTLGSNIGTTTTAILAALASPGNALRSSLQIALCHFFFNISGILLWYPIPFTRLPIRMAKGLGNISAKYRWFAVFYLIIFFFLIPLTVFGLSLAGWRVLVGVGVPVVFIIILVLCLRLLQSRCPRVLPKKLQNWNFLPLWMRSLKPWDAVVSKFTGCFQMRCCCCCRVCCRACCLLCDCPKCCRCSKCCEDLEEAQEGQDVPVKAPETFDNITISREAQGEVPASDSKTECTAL
Protocol: Briefly, HEK293-6e cells were transfected for ˜24 hours to transiently express human NaPi2b, cynomolgus or mouse NaPi2b, at 1 μg of DNA per 1 million cells. Following transfection, 50,000 cells per well were seeded in V-bottom 96-well plates and incubated with 200 nM of primary antibody for 18-24 hours at 4° C. to prevent internalization. Post-incubation, cells were washed and stained with anti-Human IgG Fc AF647 conjugate (Jackson Immuno Research Labs, West Grove, PA, Cat. No. 109-605-098, Lot. No. 124868) at 4° C. for 1 hour. Following staining and washing, fluorescence was detected by flow cytometry on BD LSRFortessa™ Cell Analyzer (BD Biosciences, Franklin Lake, NJ) with 10,000 minimum events collected per well. The AF647/APC-A GeoMean (fluorescence signal geometric mean, proportional to anti-Human AF647 binding) was calculated for the live singlet cell population for each primary antibody using FlowJo™ v8 software (BD Biosciences, Franklin Lake, NJ). The Bmax and Kd of each primary antibody were calculated using GraphPad Prism Version 9 (GraphPad Software, San Diego, CA)
The ability of ADCs to bind to cells expressing NaPi2b was assessed. ADCs of a representative humanized variant antibody, v29456 (H1L2), were prepared by conjugation to DL2 and DL1 as described in Example 11. Binding to endogenous high NaPi2b-expressing cell lines IGROV-1 and HCC-78 was assessed by flow cytometry according to methods described in Example 5.

B1: v29456: humanized anti-NaPi2b IgG1/kappa antibody H1L2; VH SEQ ID NO:24, VL SEQ ID NO:29 (antibody, V domains shown)
VH: QVQLVQSGAEVKKPGASVKVSCKASGFTFTSYNVHWVRQAPGQGLEWMGAISPGNGDLSYAQKFQGRVTMTRDTSTSTVYMELSSLRSEDTAVYYCARGRTGMGAVDYWGQGTLVTVSS
VL: DVQMTQSPSSLSASVGDRVTITCRASQDVYSYLNWYQQKPGKAVKLLIYYTSRLQSGVPSRFSGSGSGTDYTLTISSLQPEDFATYYCQQYNIFPWTFGQGTKLEIK
modifications: v29452, v29456, v29460 VH (H1); v29453, v29454, v29455, v29456 VL (L2)
Bmax (MFI) [1]: 40,867 MFI | Curve Hill Slope (h) [1]: 1.1 | Kd ([1]; apparent Kd): 1.1 nM | Bmax [2]: 21,785 | Curve Hill Slope (h) [2]: 1.2 | Kd ([2]; apparent Kd): 2.27 nM

— patent US20250277030A1, “ANTI-NAPI2B ANTIBODIES AND METHODS OF USE” (Zymeworks BC Inc., priority 2022, published 2025)
